The target in data set [1] is T1, Sin Nombre hantavirus nucleocapsid protein (N) (Sin Nombre hantavirus) (UniProt Q89462).
T1 sequence: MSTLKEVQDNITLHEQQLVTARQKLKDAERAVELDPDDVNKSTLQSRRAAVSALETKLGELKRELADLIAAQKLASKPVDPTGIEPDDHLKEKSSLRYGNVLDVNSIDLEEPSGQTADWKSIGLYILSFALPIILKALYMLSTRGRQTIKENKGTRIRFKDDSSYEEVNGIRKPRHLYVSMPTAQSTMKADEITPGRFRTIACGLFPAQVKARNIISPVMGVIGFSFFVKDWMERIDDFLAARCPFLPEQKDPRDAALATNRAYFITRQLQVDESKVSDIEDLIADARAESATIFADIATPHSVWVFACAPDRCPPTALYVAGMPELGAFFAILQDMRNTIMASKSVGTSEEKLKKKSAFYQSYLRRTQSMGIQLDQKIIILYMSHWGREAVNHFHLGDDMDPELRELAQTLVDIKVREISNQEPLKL
As to the kind of experiment: filter. The settings on record: 5' m7G cap.

The target in data set [2] is T2, Sin Nombre hantavirus nucleocapsid protein (N) (Sin Nombre hantavirus, UniProt Q89462 SEQ:1-428).
T2 sequence: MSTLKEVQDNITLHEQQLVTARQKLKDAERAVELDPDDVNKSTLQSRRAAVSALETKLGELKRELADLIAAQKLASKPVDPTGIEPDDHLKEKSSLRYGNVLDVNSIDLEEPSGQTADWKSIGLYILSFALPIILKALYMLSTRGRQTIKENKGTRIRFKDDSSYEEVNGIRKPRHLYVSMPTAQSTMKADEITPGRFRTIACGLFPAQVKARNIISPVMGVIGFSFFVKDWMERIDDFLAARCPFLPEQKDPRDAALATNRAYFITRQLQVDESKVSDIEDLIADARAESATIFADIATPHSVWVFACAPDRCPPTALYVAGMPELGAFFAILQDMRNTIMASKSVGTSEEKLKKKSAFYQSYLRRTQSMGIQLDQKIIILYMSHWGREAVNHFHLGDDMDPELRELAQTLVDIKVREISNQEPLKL
As to the kind of experiment: filter. The settings on record: tags: C-terminal octahistidine tag, expressed in E. coli; label: 32P-CTP.

As a reminder, the Kd is the concentration at which binding is half-saturated. Lower therefore signals higher affinity. Take capped TriEx 5'-terminal decamer: the dissociation constant Kd in data set [1] is 130 nM.

B1: m7… capped decamer (ssRNA)
RNA: GUCUCUCCCA
modifications: 5' m7G cap
Regarding B1, in data set [2], the dissociation constant Kd is approximately 130 nM.

B2: m7GUCUCC capped hexamer (ssRNA)
RNA: GUCUCC
modifications: 5' m7G cap
The molecule B2 had a Kd in data set [2] of 125 nM.
